Assay results: article PMC8260353 (Nature, 2021)
Residue numbers refer to the chain shown, from its start. Like-named read-outs stand apart in the source and are kept apart here.

Assays:
[1] = molecular target: T1, Nb12 trimer (three Nb12 units with GGGGS(x3) linkers, fused to human IgG1 Fc) (nanomouse (mouse with camelid VHH genes)); assay: BLI; conditions: both partners purified
T1 construct: also called trivalent Nb12

[2] = molecular target: T2, bivalent Nb30 (Nb30 fused to human IgG1 Fc) (nanomouse (mouse with camelid VHH genes)); assay: BLI; conditions: both partners purified
T2 construct: also called Nb30 (bivalent)

[3] = molecular target: T3, human immunodeficiency virus-1 (HIV-1) envelope trimer (BG505 DS-SOSIP) (HIV-1 group M subtype A, isolate BG505, UniProt Q2N0S6, stabilised)
[4] = molecular target: T3, human immunodeficiency virus-1 (HIV-1) …; assay: BLI; BG505 DS-SOSIP binding to immobilized VHH9 nanobody; kinetic fit; conditions: both partners purified

T2 sequence (heavy, as listed by the source): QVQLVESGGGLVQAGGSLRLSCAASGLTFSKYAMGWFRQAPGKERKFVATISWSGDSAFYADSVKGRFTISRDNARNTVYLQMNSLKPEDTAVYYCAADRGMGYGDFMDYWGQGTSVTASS

B1: SARS-CoV RBD fused to the Fc region of human IgG1 (Fc fusion)
chain: not shown
[1]
  binding result: binds
[2]
  binding result: binds

B2: VHH9-2 (VHH)
VHH: QVKLEESGGGSVQAGGSLRLSCTAPGFTSNSCGMAWYRQAPGKEREFVSSISTDGTTSYADSVKGRFTISKDKAKDTVYLQMNSLKPEDTAMYSCKTYGPYCYFDVWGAGTTVTVSS
[3]
  binding result: binds

B3: VHH9-3 (VHH)
VHH: B2 VHH with S117A
[3]
  binding result: binds

B4: VHH9-1 (nanobody from nanomouse immunized with BG505 DS-SOSIP) (VHH)
VHH: B2 VHH with Q1E, K3H, E5V, A24T, V113L
[4]
  binding result: binds
